Among the data in patent publication US20220403013A1 are Kd values, retold here.

For the test, the target named is malondialdehyde-modified LDL (MDA-LDL), human (human) (UniProt P04114). Briefly: ELISA, MDA-LDL immobilised on plate, antibody titrated (0.01-50 µg/ml), HRP anti-human IgG detection.

Usually Kd stands for the concentration at which binding is half-saturated.

Substance orticumab (antibody) gave a Kd of 8 nM.
